Measurements from patent publication US20250064890A1, “PROTEIN COMPOSITIONS FOR THE TREATMENT OF INFLAMMATORY DISEASES” (Unichem Laboratories Limited, priority 2021, published 2025).

Columns and labels:
[1] = system: oral (buccal) mucosa cells (TR146); assay: Restoration of mitochondrial membrane potential (JC-1) against radiation induced damage; format: cell-based, human; conditions: for MMP: red/green JC-1 fluorescence ratio
Description: Oral buccal mucosal cells (TR146) were incubated overnight in 5% CO2 incubator at 37° C. for 24 h. […] After 24 h of treatment, cells were exposed to damage (5-FU 5 mM) for 1.25 h for chemotherapy induced inflammation and exposed to gamma radiation (3.5 kGy) using Cobalt 60 for radiation induced inflammation. After the exposure, the anti-apoptotic effect of SEQ ID NO 2 was determined by restoration of mitochondrial membrane depolarization by JC-1 staining and reduction in apoptotic cell populations (Annexin positive and subG0/G1 cells in cell cycle analysis).
After incubation, the supernatants were discarded and 100 μl of JC1-dye solution (prepared by diluting 1 mM DMSO stock into 10 μM in 1×PBS) was added to each well. The cells were then incubated with the dye in CO2 incubator at 37° C. for 15 min, after which the supernatant was removed, and the cells were washed twice with 1×PBS. 100 μl of 1×PBS was finally added to each well. Red fluorescence (excitation 550 nm, emission 600 nm) and green fluorescence (excitation 485 nm, emission 535 nm) were measured using Biotek Synergy HT plate reader. The mitochondrial membrane potential (Δψm) was calculated as the ratio of intensity of red fluorescence to intensity of green fluorescence.
The percentage increase/restoration in mitochondrial membrane potential (MMP) was calculated as: % Increase=[(R−X)/R]*100 • Where, X=Δψm corresponding to TI+5-FU treated cells or TI+radiation treated cells; R=Δψm corresponding to control cells (FU damaged or Radiation damaged alone)

VEGF = assay: Multiplex analysis, chemotherapy (5-FU), TR146; format: cell-based, human; conditions: for VEGF against chemotherapy induced levels: 5-FU, in words
Description: (§1) Oral buccal mucosal cells (TR146) cells were incubated overnight at 37° C. in 5% CO2 incubator. […] The cells were then stimulated with 5-FU (10 mM) for another 24h for chemotherapy and with gamma radiation (3.5 kGy) using Cobalt 60 for radiotherapy. After 24 h, cell culture supernatants were collected from each well and stored at −20° C. till multiplex analysis. For NF-kB estimations, cell lysates were prepared. Levels of biomarkers were estimated using Magpix® multiplex machine. The cells treated with Amifostine (along with 5-FU or radiation) were considered as positive control (PC). Untreated cells (5-FU or radiation alone treated) were used as negative control (NC).
(§2) The percent modulation in each sample was determined as follows:
(§3) [{Concentration of biomarkers (pg/ml) in Control cells (5-FU or radiation alone treated)−Concentration of biomarkers (pg/ml) in SEQ ID NO: 2+5-FU or radiation treated cells)}/Concentration of biomarkers (pg/ml) in Control cells (5-FU or radiation alone treated)]*100

TNF-α = assay: Multiplex analysis, chemotherapy (5-FU), TR146; format: cell-based, human; conditions: for TNF-α against chemotherapy induced levels: 5-FU, in words
Description: as §1, §2, §3

[2] = system: 5-Fluorouracil induced OM; assay: Histopathology score of cheek pouch, 5-FU induced OM in hamsters; format: in vivo, golden Syrian hamsters; conditions: for Histopathology score, Mean: scale 1-5
Description: To induce OM, animals were administered (except normal control) 5-Fluorouracil (5-FU) by intraperitoneal route at doses of 60 mg/kg & 40 mg/kg respectively on first two days. On Day 4, under anesthesia, with aim of enhancing OM, mechanical irritation of the oral mucosa were done using wire brush. Treatment was initiated from Day 4 to Day 12. For group 3 animals 100 μl of vehicle comprising of standard drug Dexamethasone at 0.1 mg was instilled in buccal cheek pouch. For group 4, 5 and 6 animals 100 μl of vehicle comprising of SEQ ID NO. 2 at 0.25 mg, 0.5 mg & 1 mg, respectively was instilled in buccal cheek pouch. At the end of treatment period, cheek pouch of the hamsters was exposed, Mucositis scoring was carried out and images were captured. The animals were then humanely sacrificed, cheek pouch/jugular mucosa were isolated and used for biomarker estimation and histopathological investigation by using ELISA method and Hematoxylin and Eosin (H&E) staining, respectively.
For histopathology the oral mucosa tissues were sectioned 5 μm thickness and stained with hematoxylin-eosin staining. For study histopathological the sections were analyzed by light microscopy.
The pouch/jugular mucosa were observed and scored for infiltration of inflammatory cells, vasodilatation, presence of hemorrhagic areas, edema, ulcerations, and abscesses.

[3] = 100 μg/ml + Radiation (3.5 kGy)

B1: SEQ ID NO 2: recombinant lectin, variant of the S. rolfsii lectin amino acid sequence (reported as Rec-2 in WO 2010/095143) (protein)
chain: TYKITVRVYQTNPDAFFHPVEKTVWKYANGGTWTITDDQHVLTMGGSGTSGTLRFHADNGESFTATFGVHNYKRWCDIVTNLAADETGMVINQQYYSQKNREEARERQLSNYQVKNAKGRNFQIVYTEAEGNDLHANLIIG
MMP ([1]; 0.01 μg/ml + Radiation (3.5 kGy)): 5.76
% Increase in MMP (with respect to control) ([1]; 1 μg/ml + Radiation (3.5 kGy)): 36.6%
% Increase in MMP (with respect to control) ([1]; 10 μg/ml + Radiation (3.5 kGy)): 17.8%
MMP ([1]; 10 μg/ml + Radiation (3.5 kGy)): 5.43
MMP ([1]; 50 μg/ml + Radiation (3.5 kGy)): 6.29
% Increase in MMP (with respect to control) [1, 3]: 7.9%
MMP [1, 3]: 4.97
Percentage Inhibition VGEF (VEGF; 0.1 μg/ml + 5-FU (10 mM)): 25%
Percentage Inhibition VGEF (VEGF; 10 μg/ml + 5-FU (10 mM)): 24.4%
Percentage Inhibition VGEF (VEGF; 25 μg/ml + 5-FU (10 mM)): 28%
Percentage Inhibition VGEF (VEGF; 50 μg/ml + 5-FU (10 mM)): 37.8%
Percentage Inhibition VGEF (VEGF; 100 μg/ml + 5-FU (10 mM)): 41.7%
VEGF against chemotherapy induced levels (VEGF): lowering of levels
VEGF against chemotherapy induced levels (VEGF; listed as test items): downregulation
Percentage Inhibition TNF-α (TNF-α; 0.1 μg/ml + 5-FU (10 mM)): 13.3%
Percentage Inhibition TNF-α (TNF-α; 10 μg/ml + 5-FU (10 mM)): 10%
Percentage Inhibition TNF-α (TNF-α; 25 μg/ml + 5-FU (10 mM)): 10%
Percentage Inhibition TNF-α (TNF-α; 50 μg/ml + 5-FU (10 mM)): 13.3%
Percentage Inhibition TNF-α (TNF-α; 100 μg/ml + 5-FU (10 mM)): 6.6%
TNF-α against chemotherapy induced levels (TNF-α): lowering of levels
TNF-α against chemotherapy induced levels (TNF-α; listed as test items): downregulation
Histopathology score, Mean ([2]; G4, 0.25 mg/Animal): 3
Histopathology score, Mean ([2]; G5, 0.5 mg/Animal): 2
Histopathology score, Mean ([2]; G6, 1 mg/Animal): 2.8
histology score as compared to the untreated subjects ([2]; hamsters suffering from OM, in words): reduction
